According to the supplement of paper PMC9112550, “Optimization of the antimicrobial peptide Bac7 by deep mutational scanning” (BMC Biology, 2022):

System: Escherichia coli TOP10
Assay: shrunken log2 fold change of peptide-encoding DNA abundance (4.5 h post-induction vs induction); higher = less antimicrobial activity (less host growth inhibition)
Conditions: time post-induction: 4.5 h; library: site-saturation at positions 5, 18, 19, 20
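Note: peptides expressed intracellularly from a pBAD plasmid library in pooled LB shake-flask culture, induced with 0.3% L-arabinose, DNA abundance read by NGS, three biological replicates, DESeq2 with apeglm shrinkage.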

| Sequence | shrunken log2 fold change |
| --- | --- |
| RRIRWRPPRLPRPRPRPQGTPRP | 0.104 |
| RRIRWRPPRLPRPRPRPQHMPRP | -0.459 |
| RRIRWRPPRLPRPRPRPQINPRP | -0.348 |
| RRIRWRPPRLPRPRPRPQMIPRP | -0.0866 |
| RRIRWRPPRLPRPRPRPQSCPRP | 0.0975 |
| RRIRWRPPRLPRPRPRPQVGPRP | 0.0734 |
| RRIRWRPPRLPRPRPRPQVKPRP | 0.0306 |
| RRIRWRPPRLPRPRPRPQVMPRP | 0.209 |
| RRIRWRPPRLPRPRPRPQWKPRP | -0.17 |
| RRIRWRPPRLPRPRPRPQWQPRP | 0.0209 |
| RRIRWRPPRLPRPRPRPQWTPRP | 0.787 |
| RRIRWRPPRLPRPRPRPQYTPRP | -0.384 |
| RRIRWRPPRLPRPRPRPQYVPRP | 0.00889 |
| RRIRWRPPRLPRPRPRPRAIPRP | 0.539 |
| RRIRWRPPRLPRPRPRPRATPRP | 1.26 |
| RRIRWRPPRLPRPRPRPRCFPRP | 0.398 |
| RRIRWRPPRLPRPRPRPRDIPRP | -0.244 |
| RRIRWRPPRLPRPRPRPRDTPRP | 0.11 |
| RRIRWRPPRLPRPRPRPREGPRP | 1.28 |
| RRIRWRPPRLPRPRPRPRFDPRP | 0.147 |
| RRIRWRPPRLPRPRPRPRFLPRP | 0.0174 |
| RRIRWRPPRLPRPRPRPRGLPRP | 0.698 |
| RRIRWRPPRLPRPRPRPRGNPRP | 0.423 |
| RRIRWRPPRLPRPRPRPRHNPRP | 0.576 |
| RRIRWRPPRLPRPRPRPRIFPRP | 0.499 |

| Sequence | shrunken log2 fold change |
| --- | --- |
| RRIRWRPPRLPRPRPRPRIYPRP | 0.068 |
| RRIRWRPPRLPRPRPRPRKKPRP | 0.408 |
| RRIRWRPPRLPRPRPRPRKQPRP | -0.0611 |
| RRIRWRPPRLPRPRPRPRKWPRP | 0.526 |
| RRIRWRPPRLPRPRPRPRMSPRP | 0.139 |
| RRIRWRPPRLPRPRPRPRNMPRP | -0.0758 |
| RRIRWRPPRLPRPRPRPRPLPRP | 0.158 |
| RRIRWRPPRLPRPRPRPRQPPRP | 0.743 |
| RRIRWRPPRLPRPRPRPRRQPRP | -0.0653 |
| RRIRWRPPRLPRPRPRPRSEPRP | 0.0877 |
| RRIRWRPPRLPRPRPRPRSRPRP | 0.385 |
| RRIRWRPPRLPRPRPRPRVEPRP | 0.0508 |
| RRIRWRPPRLPRPRPRPRWHPRP | 0.271 |
| RRIRWRPPRLPRPRPRPRWKPRP | -0.0506 |
| RRIRWRPPRLPRPRPRPRWVPRP | 0.454 |
| RRIRWRPPRLPRPRPRPRYAPRP | 0.32 |
| RRIRWRPPRLPRPRPRPSAAPRP | 0.921 |
| RRIRWRPPRLPRPRPRPSASPRP | 0.363 |
| RRIRWRPPRLPRPRPRPSCFPRP | 0.486 |
| RRIRWRPPRLPRPRPRPSDIPRP | -0.031 |
| RRIRWRPPRLPRPRPRPSEFPRP | 0.144 |
| RRIRWRPPRLPRPRPRPSFFPRP | 0.0041 |
| RRIRWRPPRLPRPRPRPSFPPRP | -0.0295 |
| RRIRWRPPRLPRPRPRPSGKPRP | -0.0778 |
| RRIRWRPPRLPRPRPRPSGLPRP | 0.155 |

| Sequence | shrunken log2 fold change |
| --- | --- |
| RRIRWRPPRLPRPRPRPSGSPRP | 0.316 |
| RRIRWRPPRLPRPRPRPSHGPRP | -0.583 |
| RRIRWRPPRLPRPRPRPSHQPRP | -0.0408 |
| RRIRWRPPRLPRPRPRPSHVPRP | -0.167 |
| RRIRWRPPRLPRPRPRPSIRPRP | -0.613 |
| RRIRWRPPRLPRPRPRPSISPRP | -0.283 |
| RRIRWRPPRLPRPRPRPSKVPRP | -0.04 |
| RRIRWRPPRLPRPRPRPSMGPRP | 0.033 |
| RRIRWRPPRLPRPRPRPSMPPRP | -0.423 |
| RRIRWRPPRLPRPRPRPSMYPRP | -0.326 |
| RRIRWRPPRLPRPRPRPSNCPRP | -0.0121 |
| RRIRWRPPRLPRPRPRPSNKPRP | -0.403 |
| RRIRWRPPRLPRPRPRPSNTPRP | -0.355 |
| RRIRWRPPRLPRPRPRPSPFPRP | -0.245 |
| RRIRWRPPRLPRPRPRPSPWPRP | 0.0588 |
| RRIRWRPPRLPRPRPRPSQEPRP | 0.0253 |
| RRIRWRPPRLPRPRPRPSQLPRP | -0.375 |
| RRIRWRPPRLPRPRPRPSRKPRP | 0.244 |
| RRIRWRPPRLPRPRPRPSSGPRP | -0.00985 |
| RRIRWRPPRLPRPRPRPSYCPRP | 0.366 |
| RRIRWRPPRLPRPRPRPSYFPRP | 1.15 |
| RRIRWRPPRLPRPRPRPSYGPRP | -0.503 |
| RRIRWRPPRLPRPRPRPSYNPRP | -0.343 |
| RRIRWRPPRLPRPRPRPTAIPRP | 0.806 |
| RRIRWRPPRLPRPRPRPTALPRP | 0.257 |

| Sequence | shrunken log2 fold change |
| --- | --- |
| RRIRWRPPRLPRPRPRPTDHPRP | -0.307 |
| RRIRWRPPRLPRPRPRPTDLPRP | 0.0776 |
| RRIRWRPPRLPRPRPRPTEGPRP | 0.0765 |
| RRIRWRPPRLPRPRPRPTEIPRP | -0.22 |
| RRIRWRPPRLPRPRPRPTFQPRP | 0.131 |
| RRIRWRPPRLPRPRPRPTHTPRP | -0.252 |
| RRIRWRPPRLPRPRPRPTINPRP | -0.303 |
| RRIRWRPPRLPRPRPRPTKGPRP | 0.469 |
| RRIRWRPPRLPRPRPRPTKKPRP | 0.0726 |
| RRIRWRPPRLPRPRPRPTKPPRP | 0.184 |
| RRIRWRPPRLPRPRPRPTKVPRP | -0.0596 |
| RRIRWRPPRLPRPRPRPTLLPRP | 0.104 |
| RRIRWRPPRLPRPRPRPTLMPRP | 0.479 |
| RRIRWRPPRLPRPRPRPTNNPRP | 0.0375 |
| RRIRWRPPRLPRPRPRPTSIPRP | -0.22 |
| RRIRWRPPRLPRPRPRPTTGPRP | 0.384 |
| RRIRWRPPRLPRPRPRPTTTPRP | 0.567 |
| RRIRWRPPRLPRPRPRPTTVPRP | 0.11 |
| RRIRWRPPRLPRPRPRPTVKPRP | -0.0974 |
| RRIRWRPPRLPRPRPRPTWTPRP | 0.303 |
| RRIRWRPPRLPRPRPRPTYDPRP | 1.48 |
| RRIRWRPPRLPRPRPRPVDHPRP | 0.0245 |
| RRIRWRPPRLPRPRPRPVDQPRP | 0.168 |
| RRIRWRPPRLPRPRPRPVDRPRP | -0.0331 |
| RRIRWRPPRLPRPRPRPVFKPRP | 0.0598 |

| Sequence | shrunken log2 fold change |
| --- | --- |
| RRIRWRPPRLPRPRPRPVFNPRP | -0.259 |
| RRIRWRPPRLPRPRPRPVGMPRP | 0.456 |
| RRIRWRPPRLPRPRPRPVGSPRP | 0.445 |
| RRIRWRPPRLPRPRPRPVGTPRP | 0.235 |
| RRIRWRPPRLPRPRPRPVHPPRP | -0.23 |
| RRIRWRPPRLPRPRPRPVKDPRP | -0.0234 |
| RRIRWRPPRLPRPRPRPVLNPRP | 0.116 |
| RRIRWRPPRLPRPRPRPVMDPRP | -0.385 |
| RRIRWRPPRLPRPRPRPVPMPRP | 0.221 |
| RRIRWRPPRLPRPRPRPVPVPRP | 0.271 |
| RRIRWRPPRLPRPRPRPVRKPRP | 0.167 |
| RRIRWRPPRLPRPRPRPVSRPRP | 0.616 |
| RRIRWRPPRLPRPRPRPVTEPRP | 0.361 |
| RRIRWRPPRLPRPRPRPVTMPRP | -0.0519 |
| RRIRWRPPRLPRPRPRPVVGPRP | 0.738 |
| RRIRWRPPRLPRPRPRPVWEPRP | 0.912 |
| RRIRWRPPRLPRPRPRPVWTPRP | 0.162 |
| RRIRWRPPRLPRPRPRPWAAPRP | 0.351 |
| RRIRWRPPRLPRPRPRPWARPRP | 0.135 |
| RRIRWRPPRLPRPRPRPWCFPRP | -0.0366 |
| RRIRWRPPRLPRPRPRPWCKPRP | -0.239 |
| RRIRWRPPRLPRPRPRPWEIPRP | 0.124 |
| RRIRWRPPRLPRPRPRPWEYPRP | -0.0716 |
| RRIRWRPPRLPRPRPRPWFLPRP | -0.617 |
| RRIRWRPPRLPRPRPRPWFVPRP | -0.168 |

| Sequence | shrunken log2 fold change |
| --- | --- |
| RRIRWRPPRLPRPRPRPWGGPRP | 0.556 |
| RRIRWRPPRLPRPRPRPWGTPRP | -0.0421 |
| RRIRWRPPRLPRPRPRPWHPPRP | 0.0551 |
| RRIRWRPPRLPRPRPRPWHQPRP | 0.00792 |
| RRIRWRPPRLPRPRPRPWHYPRP | -0.0627 |
| RRIRWRPPRLPRPRPRPWIDPRP | -0.049 |
| RRIRWRPPRLPRPRPRPWIFPRP | -0.679 |
| RRIRWRPPRLPRPRPRPWIMPRP | -0.0381 |
| RRIRWRPPRLPRPRPRPWIYPRP | 0.0862 |
| RRIRWRPPRLPRPRPRPWKMPRP | -0.0467 |
| RRIRWRPPRLPRPRPRPWMCPRP | -0.174 |
| RRIRWRPPRLPRPRPRPWMKPRP | -0.225 |
| RRIRWRPPRLPRPRPRPWMNPRP | -0.287 |
| RRIRWRPPRLPRPRPRPWMWPRP | 0.0359 |
| RRIRWRPPRLPRPRPRPWMYPRP | -0.02 |
| RRIRWRPPRLPRPRPRPWNMPRP | -0.101 |
| RRIRWRPPRLPRPRPRPWNNPRP | -0.77 |
| RRIRWRPPRLPRPRPRPWNRPRP | 0.066 |
| RRIRWRPPRLPRPRPRPWPPPRP | 0.546 |
| RRIRWRPPRLPRPRPRPWQMPRP | 0.0308 |
| RRIRWRPPRLPRPRPRPWQSPRP | 0.0143 |
| RRIRWRPPRLPRPRPRPWRLPRP | -0.172 |
| RRIRWRPPRLPRPRPRPWRTPRP | 0.0595 |
| RRIRWRPPRLPRPRPRPWSDPRP | -0.289 |
| RRIRWRPPRLPRPRPRPWSKPRP | -0.191 |
